# B1: Mothers against decapentaplegic homolog 4 (Homo sapiens), Q13485 (parent)
# chain: MDNMSITNTPTSNDACLSIVHSLMCHRQGGESETFAKRAIESLVKKLKEKKDELDSLITAITTNGAHPSKCVTIQRTLDGRLQVAGRKGFPHVIYARLWRWPDLHKNELKHVKYCQYAFDLKCDSVCVNPYHYERVVSPGIDLSGLTLQSNAPSSMMVKDEYVHDFEGQPSLSTEGHSIQTIQHPPSNRASTETYSTPALLAPSESNATSTANFPNIPVASTSQPASILGGSHSEGLLQIASGPQPGQQQNGFTGQPATYHHNSTTTWTGSRTAPYTPNLPHHQNGHLQHHPPMPPHPGHYWPVHNELAFQPPISNHPAPEYWCSIAYFEMDVQVGETFKVPSSCPIVTVDGYVDPSGGDRFCLGQLSNVHRTEAIERARLHIGKGVQLECKGEGDVWVRCLSDHAVFVQSYYLDREAGRAPGDAVHKIYPSAYIKVFDLRQCHRQMQQQAATAQAAAAAQAAAVAGNIPGPGSVGGIAPAISLSAAAGIGVDDLRRLCILRMSFVKGWGPDYPRQSIKETPCWIEIHLHRALQLLDEVLHTMPIADPQPLD
# partner: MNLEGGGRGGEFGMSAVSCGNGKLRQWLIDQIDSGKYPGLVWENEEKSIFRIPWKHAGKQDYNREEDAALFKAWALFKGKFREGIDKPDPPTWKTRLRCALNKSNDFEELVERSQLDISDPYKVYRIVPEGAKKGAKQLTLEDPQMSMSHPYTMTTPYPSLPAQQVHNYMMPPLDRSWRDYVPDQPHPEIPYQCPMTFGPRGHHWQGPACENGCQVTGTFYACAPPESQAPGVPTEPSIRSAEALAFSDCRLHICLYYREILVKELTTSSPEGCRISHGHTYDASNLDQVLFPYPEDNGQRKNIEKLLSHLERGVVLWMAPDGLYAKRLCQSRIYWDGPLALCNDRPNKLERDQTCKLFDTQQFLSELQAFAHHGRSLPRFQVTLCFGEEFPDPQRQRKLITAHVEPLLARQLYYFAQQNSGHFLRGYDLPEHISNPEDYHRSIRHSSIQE
# B2: Mothers against decapentaplegic homolog 4 (Homo sapiens), Q13485 (parent)
# chain: B1 chain
# partner: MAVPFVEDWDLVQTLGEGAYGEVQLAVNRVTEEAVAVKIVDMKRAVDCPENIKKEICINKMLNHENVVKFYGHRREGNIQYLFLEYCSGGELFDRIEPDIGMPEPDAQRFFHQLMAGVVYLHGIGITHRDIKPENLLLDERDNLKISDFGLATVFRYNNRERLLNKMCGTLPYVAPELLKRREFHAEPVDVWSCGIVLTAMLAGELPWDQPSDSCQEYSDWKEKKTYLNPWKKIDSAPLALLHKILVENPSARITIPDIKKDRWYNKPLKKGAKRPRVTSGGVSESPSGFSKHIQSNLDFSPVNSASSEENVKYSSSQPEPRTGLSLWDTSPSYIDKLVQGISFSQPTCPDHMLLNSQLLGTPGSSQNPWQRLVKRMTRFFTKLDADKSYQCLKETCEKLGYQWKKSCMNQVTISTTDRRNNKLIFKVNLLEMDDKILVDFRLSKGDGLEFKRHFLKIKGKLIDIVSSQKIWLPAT
# B3: Mothers against decapentaplegic homolog 4 (Homo sapiens), Q13485 (parent)
# chain: B1 chain
# partner: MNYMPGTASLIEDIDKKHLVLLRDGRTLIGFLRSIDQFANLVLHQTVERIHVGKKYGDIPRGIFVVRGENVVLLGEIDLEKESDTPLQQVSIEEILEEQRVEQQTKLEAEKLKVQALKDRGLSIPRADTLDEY
# B4: Mothers against decapentaplegic homolog 4 (Homo sapiens), Q13485 (parent)
# chain: B1 chain
# partner: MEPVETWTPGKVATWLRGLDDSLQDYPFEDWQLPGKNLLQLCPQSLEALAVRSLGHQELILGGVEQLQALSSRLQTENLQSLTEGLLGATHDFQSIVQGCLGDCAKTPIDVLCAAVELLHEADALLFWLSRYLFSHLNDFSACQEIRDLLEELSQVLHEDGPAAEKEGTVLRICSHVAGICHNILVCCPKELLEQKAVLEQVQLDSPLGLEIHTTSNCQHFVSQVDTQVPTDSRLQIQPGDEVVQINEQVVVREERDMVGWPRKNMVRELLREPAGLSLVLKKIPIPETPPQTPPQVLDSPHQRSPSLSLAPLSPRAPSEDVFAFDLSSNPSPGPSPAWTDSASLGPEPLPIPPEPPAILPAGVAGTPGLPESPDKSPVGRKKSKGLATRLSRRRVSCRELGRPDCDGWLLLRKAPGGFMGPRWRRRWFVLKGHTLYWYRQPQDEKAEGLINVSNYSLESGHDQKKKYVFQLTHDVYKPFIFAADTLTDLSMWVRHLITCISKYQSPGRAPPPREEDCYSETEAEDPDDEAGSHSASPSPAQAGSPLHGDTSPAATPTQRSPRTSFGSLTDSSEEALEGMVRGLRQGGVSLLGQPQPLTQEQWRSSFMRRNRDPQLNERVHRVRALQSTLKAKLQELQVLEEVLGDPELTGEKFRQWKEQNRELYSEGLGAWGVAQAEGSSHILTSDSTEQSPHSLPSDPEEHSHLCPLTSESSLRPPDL
# B5: Mothers against decapentaplegic homolog 4 (Homo sapiens), Q13485 (parent)
# chain: B1 chain
# partner: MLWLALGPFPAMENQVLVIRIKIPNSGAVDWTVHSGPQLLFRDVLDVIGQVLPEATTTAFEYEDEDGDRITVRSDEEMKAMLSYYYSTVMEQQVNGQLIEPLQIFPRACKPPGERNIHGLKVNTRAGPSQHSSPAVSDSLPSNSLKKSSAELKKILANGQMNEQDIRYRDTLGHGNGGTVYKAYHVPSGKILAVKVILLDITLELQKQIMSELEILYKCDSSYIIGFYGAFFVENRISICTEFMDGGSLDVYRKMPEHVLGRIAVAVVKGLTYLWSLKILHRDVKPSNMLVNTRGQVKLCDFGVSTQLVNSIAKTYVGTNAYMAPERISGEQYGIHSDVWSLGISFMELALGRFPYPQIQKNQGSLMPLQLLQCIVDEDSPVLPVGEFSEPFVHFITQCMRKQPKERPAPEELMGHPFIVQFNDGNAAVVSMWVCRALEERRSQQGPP
# B6: Mothers against decapentaplegic homolog 4 (Homo sapiens), Q13485 (parent)
# chain: B1 chain
# partner: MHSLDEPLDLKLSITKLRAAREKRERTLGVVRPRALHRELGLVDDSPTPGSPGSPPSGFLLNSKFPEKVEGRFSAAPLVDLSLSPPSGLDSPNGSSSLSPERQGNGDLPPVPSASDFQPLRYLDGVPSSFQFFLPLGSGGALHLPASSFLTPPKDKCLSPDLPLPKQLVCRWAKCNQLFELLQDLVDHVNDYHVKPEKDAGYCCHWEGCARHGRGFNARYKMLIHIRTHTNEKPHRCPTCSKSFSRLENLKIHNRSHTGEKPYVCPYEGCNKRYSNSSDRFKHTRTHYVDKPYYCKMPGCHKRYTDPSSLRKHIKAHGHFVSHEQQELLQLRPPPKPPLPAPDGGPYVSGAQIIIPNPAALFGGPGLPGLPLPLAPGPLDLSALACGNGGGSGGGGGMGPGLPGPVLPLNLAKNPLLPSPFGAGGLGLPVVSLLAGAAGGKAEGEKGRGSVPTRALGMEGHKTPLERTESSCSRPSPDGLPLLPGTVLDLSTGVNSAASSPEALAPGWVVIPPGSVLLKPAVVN
# B7: Mothers against decapentaplegic homolog 4 (Homo sapiens), Q13485 (parent)
# chain: B1 chain
# partner: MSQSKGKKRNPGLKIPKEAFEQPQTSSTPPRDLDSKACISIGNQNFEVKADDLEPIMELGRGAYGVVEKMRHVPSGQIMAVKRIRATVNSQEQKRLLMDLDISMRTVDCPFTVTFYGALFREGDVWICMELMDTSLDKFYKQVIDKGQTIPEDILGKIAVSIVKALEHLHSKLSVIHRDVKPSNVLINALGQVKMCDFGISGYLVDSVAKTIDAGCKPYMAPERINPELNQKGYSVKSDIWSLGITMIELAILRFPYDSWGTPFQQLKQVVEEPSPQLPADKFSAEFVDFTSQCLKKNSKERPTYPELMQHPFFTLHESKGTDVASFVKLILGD
# Variants of: B1
# Settings: with irf4_human IRF4, Q15306
row,effect of a mutation on the interaction,Variant
1,with no effect,R361H

# Variants of: B1
# Settings: with irf4_human IRF4, Q15306
# Remark: another data set of the same source
row,effect of a mutation on the interaction,Variant
1,with no effect,R361C

# Variants of: B2
# Settings: with chk1_human CHEK1, O14757
row,effect of a mutation on the interaction,Variant
1,with no effect,D351H

# Variants of: B2
# Settings: with chk1_human CHEK1, O14757
# Remark: another data set of the same source
row,effect of a mutation on the interaction,Variant
1,with no effect,R361H

# Variants of: B2
# Settings: with chk1_human CHEK1, O14757
# Remark: another data set of the same source
row,effect of a mutation on the interaction,Variant
1,with no effect,R361C

# Variants of: B2
# Settings: with chk1_human CHEK1, O14757
# Remark: another data set of the same source
row,effect of a mutation on the interaction,Variant
1,with no effect,G386D

# Variants of: B3
# Settings: with lsm1_human LSM1, O15116
row,effect of a mutation on the interaction,Variant
1,with no effect,G386D

# Variants of: B3
# Settings: with lsm1_human LSM1, O15116
# Remark: another data set of the same source
row,effect of a mutation on the interaction,Variant
1,with no effect,R361C

# Variants of: B3
# Settings: with lsm1_human LSM1, O15116
# Remark: another data set of the same source
row,effect of a mutation on the interaction,Variant
1,with no effect,R361H

# Variants of: B3
# Settings: with lsm1_human LSM1, O15116
# Remark: another data set of the same source
row,effect of a mutation on the interaction,Variant
1,with no effect,D351H

# Variants of: B4
# Settings: with cnkr1_human CNKSR1, Q969H4
row,effect of a mutation on the interaction,Variant
1,with no effect,G386D

# Variants of: B4
# Settings: with cnkr1_human CNKSR1, Q969H4
# Remark: another data set of the same source
row,effect of a mutation on the interaction,Variant
1,with no effect,D351H

# Variants of: B4
# Settings: with cnkr1_human CNKSR1, Q969H4
# Remark: another data set of the same source
row,effect of a mutation on the interaction,Variant
1,with no effect,R361H

# Variants of: B4
# Settings: with cnkr1_human CNKSR1, Q969H4
# Remark: another data set of the same source
row,effect of a mutation on the interaction,Variant
1,with no effect,R361C

# Variants of: B5
# Settings: with mp2k5_human MAP2K5, Q13163
row,effect of a mutation on the interaction,Variant
1,with no effect,D351H

# Variants of: B5
# Settings: with mp2k5_human MAP2K5, Q13163
# Remark: another data set of the same source
row,effect of a mutation on the interaction,Variant
1,with no effect,R361C

# Variants of: B5
# Settings: with mp2k5_human MAP2K5, Q13163
# Remark: another data set of the same source
row,effect of a mutation on the interaction,Variant
1,with no effect,R361H

# Variants of: B5
# Settings: with mp2k5_human MAP2K5, Q13163
# Remark: another data set of the same source
row,effect of a mutation on the interaction,Variant
1,with no effect,G386D

# Variants of: B6
# Settings: with glis2_human GLIS2, Q9BZE0
row,effect of a mutation on the interaction,Variant
1,with no effect,R361H

# Variants of: B6
# Settings: with glis2_human GLIS2, Q9BZE0
# Remark: another data set of the same source
row,effect of a mutation on the interaction,Variant
1,with no effect,R361C

# Variants of: B6
# Settings: with glis2_human GLIS2, Q9BZE0
# Remark: another data set of the same source
row,effect of a mutation on the interaction,Variant
1,with no effect,D351H

# Variants of: B6
# Settings: with glis2_human GLIS2, Q9BZE0
# Remark: another data set of the same source
row,effect of a mutation on the interaction,Variant
1,with no effect,G386D

# Variants of: B7
# Settings: with mp2k6_human MAP2K6, P52564
row,effect of a mutation on the interaction,Variant
1,with no effect,R361C

# Variants of: B7
# Settings: with mp2k6_human MAP2K6, P52564
# Remark: another data set of the same source
row,effect of a mutation on the interaction,Variant
1,with no effect,R361H
